Assay results as given in patent US12269859B2, “Synthetic immune receptors and methods of use thereof” (Angeles Therapeutics, Inc., priority 2016, dated 2025).

System: target antigen-expressing cell line
Assay: Jurkat NFAT-GFP assay, coculture with target cell lines expressing the respective target antigen (summary Table 10A)
Assay type: cell-based, human
Set-up: key: The signs +/−, +, 2+ etc. after the name of the cell lines indicate the relative degree of positivity on the Jurkat-NFAT-GFP assay as measured by the % GFP positive cells; +: relative degree of positivity on the Jurkat-NFAT-GFP assay as measured by the % GFP positive cells; 2+: relative degree of positivity on the Jurkat-NFAT-GFP assay as measured by the % GFP positive cells
Procedure, shortened: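 Read-out: % GFP+ cells by FACS. SIR-transduced, puromycin-selected Jurkat NFAT-GFP (IL-2 promoter reporter) cocultured ~4–18 h with target line, E:T ~1:2; parental cells as control; graded +/−, +, 2+ relative to parental.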

B1: 022817-U05 (protein)
chain: MALPVTALLLPLALLLHAARPDIQMNQSPSSLSASLGDTITITCHASQNINVWLSWYQQKPGNIPKLLIYKASNLHTGVPSRFSGSGSGTGFTITISSLQPEDIATYYCQQGQSYPWTFGGGTKLEIKRLEGKPIPNPLLGLDSTGSGEDLKNVFPPEVAVFEPSKAEIAHTQKATLVCLATGFYPDHVELSWWVNGKEVHSGVCTDPQPLKEQPALNDSRYCLSSRLRVSATFWQNPRNHFRCQVQFYGLSENDEWTQDRAKPVTQIVSAEAWGRADCGITSASYHQGVLSATILYEILLGKATLYAVLVSALVLMAMVKRKDSRGRAKRSGSGATNFSLLKQAGDVEENPGPTSMDWIWRILFLVGAATGAHSFEEVQLQQSGPELVKPGASVKISCKASGYSFTGYFMNWVKQSHGKSLEYIGRFNPYNGETLYNQKFKGKATLTVDKSSSTVHMELLSVTSEDSAVYYCGRSGNDDAMDYWGQGTSVTVSSATREQKLISEEDGSGIQNPDPAVYQLRDSKSSDKSVCLFTDFDSQTNVSQSKDSDVYITDKCVLDMRSMDFKSNSAVAWSNKSDFACANAFNNSIIPEDTFFPSSDVPCDVKLVEKSFETDTNLNFQNLSVIGFRILLLKVAGFNLLMTLRLWSSRAKRSGSGVKQTLNFDLLKLAGDVESNPGPSRGHMTEYKPTVRLATRDDVPRAVRTLAAAFADYPATRHTVDPDRHIERVTELQELFLTRVGLDIGKVWVADDGAAVAVWTTPESVEAGAVFAEIGPRMAELSGSRLAAQQQMEGLLAPHRPKEPAWFLATVGVSPDHQGKGLGSAVVLPGVEAAERAGVPAFLETSAPRNLPFYERLGFTVTADVEVPEGPRTWCMTRKPGA
modifications: Polynucleotide encoding a Synthetic Immune Receptor (SIR)
B1 was tested, and the “NFAT-GFP ASSAY Positive Cell lines” value (coculture with Jurkats-TCRgd-SIR cells) was “Jurkats-TCRgd-SIR”.

B2: 101817-E05 (protein)
chain: MALPVTALLLPLALLLHAARPQSVVTQPPSVSAAPGQKVTISCSGSSSNIGNNYVSWYQQLPGTAPKLLIYDNNKRPSGIPDRFSASKSGTSATLGITGLQTRDEADYYCGTWDSSLSAWVFGGGTKLTVLGLEIQNPDPAVYQLRDSKSSDKSVCLFTDFDSQTNVSQSKDSDVYITDKCVLDMRSMDFKSNSAVAWSNKSDFACANAFNNSIIPEDTFFPSSDVPCDVKLVEKSFETDTNLNFQNLSVIGFRILLLKVAGFNLLMTLRLWSSRAKRSGSGVKQTLNFDLLKLAGDVESNPGPTSMDWIWRILFLVGAATGAHSFEQVQLVQSGAEVKKPGSSVKVSCKASGDTFSSYYISWVRQAPGQGLEWMGRIIPILGIANYAQKYQGRVTLSADKSTSTSYMELNSLSSEDTAVYYCALDWSYSIDYWGQGTLVTVSSTREDLKNVFPPEVAVFEPSKAEIAHTQKATLVCLATGFYPDHVELSWWVNGKEVHSGVCTDPQPLKEQPALNDSRYCLSSRLRVSATFWQNPRNHFRCQVQFYGLSENDEWTQDRAKPVTQIVSAEAWGRADCGITSASYHQGVLSATILYEILLGKATLYAVLVSALVLMAMVKRKDSRGRAKRSGSGATNFSLLKQAGDVEENPGPSRGHMTEYKPTVRLATRDDVPRAVRTLAAAFADYPATRHTVDPDRHIERVTELQELFLTRVGLDIGKVWVADDGAAVAVWTTPESVEAGAVFAEIGPRMAELSGSRLAAQQQMEGLLAPHRPKEPAWFLATVGVSPDHQGKGLGSAVVLPGVEAAERAGVPAFLETSAPRNLPFYERLGFTVTADVEVPEGPRTWCMTRKPGA
With B2 the “NFAT-GFP ASSAY Positive Cell lines” value (coculture with U266 cells) was “U266(+/−)”.

B3: 112916-C01 (protein)
chain: MALPVTALLLPLALLLHAARPDVVMTQTPLTLSVTIGQPASISCKSSQSLLDSDGKTYLHWLLQRPGQSPKRLIFLVSKLDSGVPDRFTGSGSGTDFTLKISRVEAEDLGVYYCWQGTHFPQTFGGGTKLEIKLEGKPIPNPLLGLDSTGSGEDLKNVFPPEVAVFEPSKAEIAHTQKATLVCLATGFYPDHVELSWWVNGKEVHSGVCTDPQPLKEQPALNDSRYCLSSRLRVSATFWQNPRNHFRCQVQFYGLSENDEWTQDRAKPVTQIVSAEAWGRADCGITSASYHQGVLSATILYEILLGKATLYAVLVSALVLMAMVKRKDSRGRAKRSGSGATNFSLLKQAGDVEENPGPTSMDWIWRILFLVGAATGAHSFEVQLQESGPDLVKPSQSLSLTCTVTGYSITSGYSWHWIRQFPGNKLEWMGYIHYSGDTDYNPSLKSRFSITRDTSKNQFFLQLNSVTTEDTATYYCATPGGFVYWGQGTLVTVSSTREQKLISEEDGSGIQNPDPAVYQLRDSKSSDKSVCLFTDFDSQTNVSQSKDSDVYITDKCVLDMRSMDFKSNSAVAWSNKSDFACANAFNNSIIPEDTFFPSSDVPCDVKLVEKSFETDTNLNFQNLSVIGFRILLLKVAGFNLLMTLRLWSSRAKRSGSGVKQTLNFDLLKLAGDVESNPGPSRGHMTEYKPTVRLATRDDVPRAVRTLAAAFADYPATRHTVDPDRHIERVTELQELFLTRVGLDIGKVWVADDGAAVAVWTTPESVEAGAVFAEIGPRMAELSGSRLAAQQQMEGLLAPHRPKEPAWFLATVGVSPDHQGKGLGSAVVLPGVEAAERAGVPAFLETSAPRNLPFYERLGFTVTADVEVPEGPRTWCMTRKPGA
modifications: Polynucleotide encoding a Synthetic Immune Receptor (SIR)
With B3 the “NFAT-GFP ASSAY Positive Cell lines” value (coculture with L363 cells) was “(+)” and the “NFAT-GFP ASSAY Positive Cell lines” value (coculture with U266 cells) was “U266 (+/−), L363”.

B4: 112916-A01 (protein)
chain: MALPVTALLLPLALLLHAARPDIVMTQTPLSLPVTPGEPASISCRSSRSLLDSDDGNTYLDWYLQKPGQSPQLLIYTLSYRASGVPDRFSGSGSGTDFTLKISRVEAEDVGVYYCMQRVEFPITFGQGTRLEIKRLEGKPIPNPLLGLDSTGSGEDLKNVFPPEVAVFEPSKAEIAHTQKATLVCLATGFYPDHVELSWWVNGKEVHSGVCTDPQPLKEQPALNDSRYCLSSRLRVSATFWQNPRNHFRCQVQFYGLSENDEWTQDRAKPVTQIVSAEAWGRADCGITSASYHQGVLSATILYEILLGKATLYAVLVSALVLMAMVKRKDSRGRAKRSGSGATNFSLLKQAGDVEENPGPTSMDWIWRILFLVGAATGAHSFEQVQLVESGGGVVQPGRSLRLSCAASGFIFSRYGMHWVRQAPGKGLKWVAVIWYDGSNKLYADSVKGRFTISRDNSKNTLYLQMNSLRAEDTAVYYCARDYYDNSRHHWGFDYWGQGTLVTVSSTREQKLISEEDGSGIQNPDPAVYQLRDSKSSDKSVCLFTDFDSQTNVSQSKDSDVYITDKCVLDMRSMDFKSNSAVAWSNKSDFACANAFNNSIIPEDTFFPSSDVPCDVKLVEKSFETDTNLNFQNLSVIGFRILLLKVAGFNLLMTLRLWSSRAKRSGSGVKQTLNFDLLKLAGDVESNPGPSRGHMTEYKPTVRLATRDDVPRAVRTLAAAFADYPATRHTVDPDRHIERVTELQELFLTRVGLDIGKVWVADDGAAVAVWTTPESVEAGAVFAEIGPRMAELSGSRLAAQQQMEGLLAPHRPKEPAWFLATVGVSPDHQGKGLGSAVVLPGVEAAERAGVPAFLETSAPRNLPFYERLGFTVTADVEVPEGPRTWCMTRKPGA
modifications: Polynucleotide encoding a Synthetic Immune Receptor (SIR)
With B4 the “NFAT-GFP ASSAY Positive Cell lines” value (coculture with SKOV3 cells) was “SKOV3 (+)”.

B5: 010417-Y05 (protein)
chain: MALPVTALLLPLALLLHAARPLEGKPIPNPLLGLDSTGSGEDLKNVFPPEVAVFEPSKAEIAHTQKATLVCLATGFYPDHVELSWWVNGKEVHSGVCTDPQPLKEQPALNDSRYCLSSRLRVSATFWQNPRNHFRCQVQFYGLSENDEWTQDRAKPVTQIVSAEAWGRADCGITSASYHQGVLSATILYEILLGKATLYAVLVSALVLMAMVKRKDSRGRAKRSGSGATNFSLLKQAGDVEENPGPTSMALPVTALLLPLALLLHAARPDQIVLTQSPAIMSASPGEKVTISCSASSSVSYMYWYQQKPGSSPKPWIYRTSNLASGVPARFSGSGSGTSYSLTISNMEAEDAAAYYCQQYHSYPTTFGGGTKLEVKGGGGSGGGGSGGGGSEVQLVESGGGLVQPKGSLKLSCAASGFSFNTYAMNWVRQAPGKGLEWIAHIRSKSNNFATYYADSVKDRFSISRDASENILFLQMNNLKTEDTAMYYCVRQGGDFPMDYWGQGTSVTVSSTREAAAKEIVMTQSPATLSLSPGERATLSCRASQDISKYLNWYQQKPGQAPRLLIYHTSRLHSGIPARFSGSGSGTDYTLTISSLQPEDFAVYFCQQGNTLPYTFGQGTKLEIKGGGGSGGGGSGGGGSQVQLQESGPGLVKPSETLSLTCTVSGVSLPDYGVSWIRQPPGKGLEWIGVIWGSETTYYNSSLKSRVTISKDNSKNQVSLKLSSVTAADTAVYYCAKHYYYGGSYAMDYWGQGTLVTVSSTREQKLISEEDGSGIQNPDPAVYQLRDSKSSDKSVCLFTDFDSQTNVSQSKDSDVYITDKCVLDMRSMDFKSNSAVAWSNKSDFACANAFNNSIIPEDTFFPSSDVPCDVKLVEKSFETDTNLNFQNLSVIGFRILLLKVAGFNLLMTLRLWSSRAKRSGSGVKQTLNFDLLKLAGDVESNPGPSRGHMTEYKPTVRLATRDDVPRAVRTLAAAFADYPATRHTVDPDRHIERVTELQELFLTRVGLDIGKVWVADDGAAVAVWTTPESVEAGAVFAEIGPRMAELSGSRLAAQQQMEGLLAPHRPKEPAWFLATVGVSPDHQGKGLGSAVVLPGVEAAERAGVPAFLETSAPRNLPFYERLGFTVTADVEVPEGPRTWCMTRKPGA
In the case of B5, the “NFAT-GFP ASSAY Positive Cell lines” value (coculture with HEL cells) is reported as “(+), HEL (+)”, the “NFAT-GFP ASSAY Positive Cell lines” value (coculture with NALM6 cells) is reported as “(+), HEL (+)” and the “NFAT-GFP ASSAY Positive Cell lines” value (coculture with RAJI cells) is reported as “RAJI (+), NALM6”.
